Patent publication US8357523B2, “Beta-glucosidase variant enzymes and related polynucleotides” (Codexis, Inc., priority 2009, dated 2013)
Changes are numbered by the printed parent chain.

B1: 133 (protein)
chain: STAIAQEGAAPAAILHPEKWPRPATQRLIDPAVEKRVDALLKQLSVEEKVGQVIQGDIGTITPEDLRKYPLGSILAGGDSGPNGDDRAPPKEWLDLADAFYRVSLEKRPGHTPIPVLFGIDAVHGHGKIGSATILPHNIALGMTRDPELLRRIGEVTAVEMTATGIDWTFAPCLSVVRDDRWGRTYEGFSEDPEIVASYSAAIVEGVQGKFGSKDFMAVGRIVASAKHFLADGGTDQGRDQGDARISEDELIRIHNAGYPPAIDAGVLTVMASFSSWQGIKHHGHKQLLTDVLKGQMGFNGFIVGDWNAHDQVPGCTKFNCPTSLIAGLDMYMAADSWKQLYENTLAQVKDGTIPMARLDDAVRRILRVKVLAGLFEKPAPKDRPGLPGLETLGSPEHRAVGREAVRKSLVLLKNDKGTLPLSPKARVLVAGDGADNIGKQSGGWTISWQGTGNRNDEFPGATSILGGIRDAVADAGGSVEFDVAGQYKTKPDVAIVVFGEEPYAEFQGDVETLEYQPDQKQDLALLKKLKDQGIPVVAVFLSGRPMWVNPELNASDAFVAAWLPGTEGGGVADVLFTDKAGKVQHDFAGKLSYSWPRTAAQTTVNRGDADYNPLFAYGYGLTYKDKSKVGTLPEESGVPAEARQNAGIYFRAGALRLPGRFL
B2: 284 (protein)
chain: B1 chain with K128N, L135F, V159E, T162A, C173A, F211Y, V219P, G298R, D311E
B3: 213 (protein)
chain: STAIAQEGAGPAAILHPEKWPRPATQRLIDPAVEKRVDALLKQLSVEEKVGQVIQGDIGTITPEDLRKYPLGSILAGGDSGPNGDDRAPPKEWLDLADAFYRVSLEKRPGHTPIPVLFGIDAVHGHGNIGSATIFPHNIALGMTRDPELLRRIGEVTAEEMAATGIDWTFAPALSVVRDDRWGRTYEGFSEDPEIVASYSAAIVEGVQGKYGSKDFMAPGRIVASAKHFLADGGTDQGRDQGDARISEDELIRIHNAGYPPAIDAGVLTVMASFSSWQGIKHHGHKQLLTDVLKGQMGFNGFIVGDWNAHDQVPGCTKFNCPTSLIAGLDMYMAADSWKQLYENTLAQVKDGTIPMARLDDAVRRILRVKVLAGLFEKPAPKDRPGLPGLETLGSPEHRAVGREAVRKSLVLLKNDKGTLPLSPKARVLVAGDGADNIGKQSGGWTISWQGTGNRNDEFPGATSILGGIRDAVADAGGSVEFDVAGQYKTKPDVAIVVFGEEPYAEFQGDVETLEYQPDQKQDLALLKKLKDQGIPVVAVFLSGRPMWVNPELNASDAFVAAWLPGTEGGGVADVLFTDKAGKVQHDFAGKLSYSWPRTAAQTTVNRGDADYNPLFAYGYGLTYKDKSKVGTLPEESGVP
B4: 285 (protein)
chain: B3 chain with G10A, G386E
B5: 214 (protein)
chain: B3 chain with A3L, G10A
B6: 283 (protein)
chain: B3 chain with G10A, V371M
B7: 278 (protein)
chain: STAIAQEGAAPAAMLHPEKWPRPATQRLIDPAVEKRVDALLKQLSVEEKVGQVIQGDIGTITPEDLRKYPLGSILAGGDSGPNGDDRAPPKEWLDLADAFYRVSLEKRPGHTPIPVLFGIDAVHGHGNIGSATIFPHNIALGMTRDPELLRRIGEVTAEEMAATGIDWTFAPALSVVRDDRWGRTYEGFSEDPEIVASYSPAIVEGVQGKYGSKDFMAPGRIVASAKHFLADGGTDQGRDQGDARISEDELIRIHNAGYPPAIDAGVLTVMASFSSWQGIKHHGHKQLLTDVLKGQMGFNGFIVGDWNAHDQVPGCTKFNCPTSLIAGLDMYMAADSWKQLYENTLAQVKDGTIPMARLDDAVRRILRVKVLAGLFEKPAPKDRPGLPGLETLGSPEHRAVGREAVRKSLVLLKNDKGTLPLSPKARVLVAGDGADNIGKQSGGWTISWQGTGNRNDEFPGATSILGGIRDAVADAGGSVEFDVAGQYKTKPDVAIVVFGEEPYAEFRGDVETLEYQPDQKQDLTLLKKLKDQGIPVVAVFLSGRPMWVNPELNASDAFVAAWLPGTEGGGVADVLFTDKAGKVQHDFAGKLSYSWPRTAAQTTVNRGDADYNPLFAYGYGLTYKDRSKVGTLPEESGVPAEARQN
B8: 132 (protein)
chain: STAIAQEGAAPAAILHPEKWPRPATQRLIDPAVEKRVDALLKQLSVEEKVGQVIQGDIGTITPEDLRKYPLGSILAGGDSGPNGDDRAPPQEWLDLADAFYRVSLEKRPGHTPIPVLFGIDAVHGHGKIGSATIFPHNIALGATRSPELLRRIGEVTAVEMAATGIDWTFAPALSVVRDDRWGRTYEGFSEDPEIVAAYSPAIVEGVQGKYGSKDFMAPGRAVACAKHFLADGGTDQGRDQGDARISEDELIRIHNAGYPPAIDAGVLTVMASFSSWQGIKHHGHKQLLTDVLKGQMGFNGFIVGDWNAHDQVPGCTKFNCPTSLIAGLDMYMAADSWKQLYENTLAQVKDGTIPMARLDDAVRRILRVKVLAGLFEKPAPKDRPGLPGLETLGSPEHRAVGREAVRKSLVLLKNDKGTLPLSPKARVLVAGDGADNIGKQSGGWTISWQGTGNRNDEFPGATSILGGIRDAVADAGGSVEFDVAGQYKTKPDVAIVVFGEEPYAEFQGDVETLEYQPDQKQDLALLKKLKDQGIPVVAVFLSGRPMWVNPELNASDAFVAAWLPGTEGGGVADVLFTDKAGKVQHDFAGKLSYSWPRTAAQTTVNRGDADYNPLFAYGYGLTYKDKSKVGTLPEESGVPAEARQNAGIYFRAGALRLPGRFL
B9: 282 (protein)
chain: B1 chain with K128N, L135F, V159E, T162A, C173A, F211Y, V219P, I246C

Assay: High throughput cellobiose assay: fold improvement in cellobiase activity of CelA variants over a control enzyme (Tables 2A-2D, 3, 5, 6, 7)
Assay type: biochemical
Conditions: 3.3 g/l cellobiose; for Fold improvement over Control Variant No. 5 from Table 2A: 55° C. and pH 6.0; for Fold improvement over Control Variant No. 94 from Table 2B: 55° C. and pH 5.3 (incubation overnight)

| Molecule | Fold improvement over Control Variant No. 5 from Table 2A | Fold improvement over Control Variant No. 94 from Table 2B |
| --- | --- | --- |
| B1 | ++ (++ = 1.1 to 6 fold improvement over control Variant No. 2) | – |
| B2 | – | ++++ (++++ = 1.1 to 1.5 fold improvement over Control No. 3, Variant No. 94) |
| B3 | – | ++++ (++++ = 1.1 to 1.5 fold improvement over Control No. 3, Variant No. 94) |
| B4 | – | ++++ (++++ = 1.1 to 1.5 fold improvement over Control No. 3, Variant No. 94) |
| B5 | – | ++++ (++++ = 1.1 to 1.5 fold improvement over Control No. 3, Variant No. 94) |
| B6 | – | ++++ (++++ = 1.1 to 1.5 fold improvement over Control No. 3, Variant No. 94) |
| B7 | – | ++++ (++++ = 1.1 to 1.5 fold improvement over Control No. 3, Variant No. 94) |
| B8 | +++ (+++ = 6 to 13 fold improvement over control Variant No. 2) | – |
| B9 | – | ++++ (++++ = 1.1 to 1.5 fold improvement over Control No. 3, Variant No. 94) |
